Experimental data taken from the Human Domainome abundance scans (Beltran et al. 2025).
± gives the uncertainty stated by the source.

B1: Transcriptional regulator ERG, residues 117 to 197; numbered along this chain, P11308 (parent)
chain: NMTTNERRVIVPADPTLWSTDHVRQWLEWAVKEYGLPDVNILLFQNIDGKELCKMTKDDFQRLTPSYNADILLSHLHYLRE

Variants of: B1
Assay: abundance fitness (aPCA) (normalised: wild type 0, dead -1); higher = more abundant; growth selection in yeast, the domain comes from the species named
Conditions: Homo sapiens

In order of falling abundance fitness:
1. NMTTNERRVIVPADPTLWSTDHVRQWLEWAVKEYGLPDVNILLFQNIDGKELCKMTKDDFQRLTPSYNADILLSRLHYLRE  0.121 ± 0.05
2. NMTTNERRVIVPADPTLWSTDHVRQWLEWAVKEYGLPDVNILLFQNIDGKELCKMTKDDFQRLTPSYNADILLSDLHYLRE  0.119 ± 0.095
3. NMTTNERRVIVPADPTLWSTDHVRQWLEWAVKEYGLPDVNILLFQNIDGKELCKMTKDDFQRLTPSYNADILLSNLHYLRE  0.099 ± 0.13
4. NMTTNERRVIVPADPTLWSTDHVRQWLEWAVKEYGLPDVNILLFQNIDGKELCKMTKDDFQRLTPSYNADILLTHLHYLRE  0.078 ± 0.08
5. NMTTNERRVIVPADPTLWSTDHVRQWLEWAVKEYGLPDVNILLFQNIDGKELCKMTKDDFQRLTPSYNADILLSHIHYLRE  0.05 ± 0.32
6. NMTTNERRVIVPADPTLWSTDHVRQWLEWAVKEYGLPDVNILLFQNIDGKELCKMTKDDFQRLTPSYNADILLSQLHYLRE  0.038 ± 0.11
7. NMTTNERRVIVPADPTLWSTDHVRQWLEWAVKEYGLPDVNILLFQNIDGKELCKMTKDDFQRLTPSYNADILLSALHYLRE  -0.01 ± 0.07
8. NMTTNERRVIVPADPTLWSTDHVRQWLEWAVKEYGLPDVNILLFQNIDGKELCKMTKDDFQRLTPSYNADILLSHVHYLRE  -0.105 ± 0.067
9. NMTTNERRVIVPADPTLWSTDHVRQWLEWAVKEYGLPDVNILLFQNIDGKELCKMTKDDFQRLTPSYNADILLSYLHYLRE  -0.113 ± 0.12
10. NMTTNERRVIVPADPTLWSTDHVRQWLEWAVKEYGLPDVNILLFQNIDGKELCKMTKDDFQRLTPSYNADILLSHCHYLRE  -0.151 ± 0.1
11. NMTTNERRVIVPADPTLWSTDHVRQWLEWAVKEYGLPDVNILLFQNIDGKELCKMTKDDFQRLTPSYNADILLSGLHYLRE  -0.156 ± 0.052
12. NMTTNERRVIVPADPTLWSTDHVRQWLEWAVKEYGLPDVNILLFQNIDGKELCKMTKDDFQRLTPSYNADILLSELHYLRE  -0.163 ± 0.099
13. NMTTNERRVIVPADPTLWSTDHVRQWLEWAVKEYGLPDVNILLFQNIDGKELCKMTKDDFQRLTPSYNADILLSILHYLRE  -0.215 ± 0.21
14. NMTTNERRVIVPADPTLWSTDHVRQWLEWAVKEYGLPDVNILLFQNIDGKELCKMTKDDFQRLTPSYNADILLSHHHYLRE  -0.237 ± 0.25
15. NMTTNERRVIVPADPTLWSTDHVRQWLEWAVKEYGLPDVNILLFQNIDGKELCKMTKDDFQRLTPSYNADILLSHMHYLRE  -0.262 ± 0.13
16. NMTTNERRVIVPADPTLWSTDHVRQWLEWAVKEYGLPDVNILLFQNIDGKELCKMTKDDFQRLTPSYNADILLSLLHYLRE  -0.316 ± 0.11
17. NMTTNERRVIVPADPTLWSTDHVRQWLEWAVKEYGLPDVNILLFQNIDGKELCKMTKDDFQRLTPSYNADILLSHAHYLRE  -0.342 ± 0.14
18. NMTTNERRVIVPADPTLWSTDHVRQWLEWAVKEYGLPDVNILLFQNIDGKELCKMTKDDFQRLTPSYNADILLPHLHYLRE  -0.352 ± 0.12
19. NMTTNERRVIVPADPTLWSTDHVRQWLEWAVKEYGLPDVNILLFQNIDGKELCKMTKDDFQRLTPSYNADILLSHWHYLRE  -0.411 ± 0.12
20. NMTTNERRVIVPADPTLWSTDHVRQWLEWAVKEYGLPDVNILLFQNIDGKELCKMTKDDFQRLTPSYNADILLSFLHYLRE  -0.511 ± 0.16
21. NMTTNERRVIVPADPTLWSTDHVRQWLEWAVKEYGLPDVNILLFQNIDGKELCKMTKDDFQRLTPSYNADILLSHKHYLRE  -0.519 ± 0.2
22. NMTTNERRVIVPADPTLWSTDHVRQWLEWAVKEYGLPDVNILLFQNIDGKELCKMTKDDFQRLTPSYNADILLSPLHYLRE  -0.561 ± 0.33
23. NMTTNERRVIVPADPTLWSTDHVRQWLEWAVKEYGLPDVNILLFQNIDGKELCKMTKDDFQRLTPSYNADILLSHSHYLRE  -0.576 ± 0.19
24. NMTTNERRVIVPADPTLWSTDHVRQWLEWAVKEYGLPDVNILLFQNIDGKELCKMTKDDFQRLTPSYNADILLSVLHYLRE  -0.62 ± 0.13
25. NMTTNERRVIVPADPTLWSTDHVRQWLEWAVKEYGLPDVNILLFQNIDGKELCKMTKDDFQRLTPSYNADILLSTLHYLRE  -0.646 ± 0.23
26. NMTTNERRVIVPADPTLWSTDHVRQWLEWAVKEYGLPDVNILLFQNIDGKELCKMTKDDFQRLTPSYNADILLSHYHYLRE  -0.663 ± 0.38
27. NMTTNERRVIVPADPTLWSTDHVRQWLEWAVKEYGLPDVNILLFQNIDGKELCKMTKDDFQRLTPSYNADILLSHEHYLRE  -0.742 ± 0.27
28. NMTTNERRVIVPADPTLWSTDHVRQWLEWAVKEYGLPDVNILLFQNIDGKELCKMTKDDFQRLTPSYNADILLSHNHYLRE  -0.794 ± 0.33
29. NMTTNERRVIVPADPTLWSTDHVRQWLEWAVKEYGLPDVNILLFQNIDGKELCKMTKDDFQRLTPSYNADILLSHGHYLRE  -0.802 ± 0.12
30. NMTTNERRVIVPADPTLWSTDHVRQWLEWAVKEYGLPDVNILLFQNIDGKELCKMTKDDFQRLTPSYNADILLSHPHYLRE  -0.923 ± 0.3
31. NMTTNERRVIVPADPTLWSTDHVRQWLEWAVKEYGLPDVNILLFQNIDGKELCKMTKDDFQRLTPSYNADILLSHQHYLRE  -0.928 ± 0.41
32. NMTTNERRVIVPADPTLWSTDHVRQWLEWAVKEYGLPDVNILLFQNIDGKELCKMTKDDFQRLTPSYNADILLSHRHYLRE  -0.944 ± 0.15
33. NMTTNERRVIVPADPTLWSTDHVRQWLEWAVKEYGLPDVNILLFQNIDGKELCKMTKDDFQRLTPSYNADILLSWLHYLRE  -1 ± 0.3
34. NMTTNERRVIVPADPTLWSTDHVRQWLEWAVKEYGLPDVNILLFQNIDGKELCKMTKDDFQRLTPSYNADILLSMLHYLRE  -1.02 ± 0.34
